Paper PMC5115829, “Digitor/dASCIZ Has Multiple Roles in Drosophila Development” (PLoS ONE, 2016)

Target: T1, His-tagged COOH-terminal fragment of Digitor containing the six TQT motifs (amino acids 256 to 388) (Drosophila, UniProt Q9VZU1 256-388)
T1 construct: Digitor/dASCIZ (CG14962), Drosophila, residues 256-388, holds the six TQT motifs; full length is aa 1-388; Purification is not described; 10 ug amounts are stated; also called Digitor-His; His-Digitor; source: expressed in BL21 cells (pET28a)
T1 sequence (looked up): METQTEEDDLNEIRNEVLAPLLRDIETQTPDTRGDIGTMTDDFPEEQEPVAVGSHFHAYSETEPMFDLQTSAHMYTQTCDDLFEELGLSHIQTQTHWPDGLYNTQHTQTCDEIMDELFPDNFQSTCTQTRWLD
Assay: pull-down; MBP-Cut up or MBP alone bound to amylose resin, incubated with His-tagged Digitor in 1X PBS pH 7.4, 4 hr, 4°C; 5 washes; immunoblot with anti-His antibody
Settings: both partners purified

B1: full length Cut up MBP fusion protein (amino acids 1-89) (natural protein, Drosophila, UniProt Q24117 1-89, looked up)
chain: MSDRKAVIKNADMSEEMQQDAVDCATQALEKYNIEKDIAAYIKKEFDKKYNPTWHCIVGRNFGSYVTHETRHFIYFYLGQVAILLFKSG
notes: Cut up, the Dynein light chain (DYNLL1 homolog) of Drosophila, full-length cDNA encoding amino acids 1-89; Purification is not described; 10 ug amounts are stated; also called MBP-Cut-up; MBP-Cut up; source: expressed in BL21 cells (pMAL-C2X)
  binding result: binds
